Results taken from patent publication US20220135665A1.

Biological target: recombinant human VEGF165 protein (human) (UniProt P15692)
Assay: cell-based or functional assay

Chain of EYLEA (Aflibercept) (Fc fusion) (chain): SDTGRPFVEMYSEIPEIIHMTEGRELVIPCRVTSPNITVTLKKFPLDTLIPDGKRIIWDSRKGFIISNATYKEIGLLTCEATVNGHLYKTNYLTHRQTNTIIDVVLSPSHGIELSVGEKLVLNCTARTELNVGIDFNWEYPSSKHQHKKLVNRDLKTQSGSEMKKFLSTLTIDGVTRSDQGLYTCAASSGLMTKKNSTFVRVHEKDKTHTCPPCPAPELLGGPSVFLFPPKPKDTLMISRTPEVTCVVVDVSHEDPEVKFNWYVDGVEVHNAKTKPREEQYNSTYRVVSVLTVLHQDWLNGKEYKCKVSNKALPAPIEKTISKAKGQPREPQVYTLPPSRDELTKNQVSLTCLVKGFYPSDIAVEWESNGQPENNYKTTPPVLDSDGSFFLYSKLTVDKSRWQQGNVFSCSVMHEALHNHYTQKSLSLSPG
Chain of Conbercept (Fc fusion) (chain): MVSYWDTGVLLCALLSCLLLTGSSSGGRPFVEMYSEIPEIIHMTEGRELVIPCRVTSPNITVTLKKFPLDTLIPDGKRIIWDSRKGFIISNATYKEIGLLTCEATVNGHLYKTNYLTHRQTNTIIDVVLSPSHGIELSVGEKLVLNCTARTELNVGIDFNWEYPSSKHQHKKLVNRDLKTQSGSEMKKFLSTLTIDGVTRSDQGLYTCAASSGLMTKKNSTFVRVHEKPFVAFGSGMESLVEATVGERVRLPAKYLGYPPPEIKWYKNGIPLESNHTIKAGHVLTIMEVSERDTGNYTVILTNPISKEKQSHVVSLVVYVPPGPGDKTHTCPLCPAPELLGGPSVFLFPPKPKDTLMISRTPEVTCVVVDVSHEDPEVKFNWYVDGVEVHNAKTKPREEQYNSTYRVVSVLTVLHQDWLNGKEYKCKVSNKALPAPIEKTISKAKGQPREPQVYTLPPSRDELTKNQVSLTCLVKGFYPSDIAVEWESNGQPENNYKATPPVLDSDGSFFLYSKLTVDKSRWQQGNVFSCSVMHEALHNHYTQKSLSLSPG

Row | EC50(nM), neutralization of HUVEC proliferation, VEGF165 at 10 ng/mL [nM] | EC50(nM), neutralization of HUVEC proliferation, VEGF165 at 100 ng/mL [nM] | EC50(nM), neutralization of HUVEC proliferation, VEGF165 at 1000 ng/mL [nM] | Maximum neutralization rate (%), VEGF165 at 10 ng/mL [%] | Maximum neutralization rate (%), VEGF165 at 100 ng/mL [%] | Maximum neutralization rate (%), VEGF165 at 1000 ng/mL [%] | Substance
1 | 0.15 | 2.56 | 32.4 | 92.7 | 89.6 | 76.7 | EYLEA (Aflibercept) (Fc fusion)
2 | 0.18 | 2.86 | 29 | 102 | 99.7 | 108 | Conbercept (Fc fusion)
